Measurements as given in US8916149B2, “Preventing and treating sepsis” (University of Rochester, priority 2008, dated 2014).

Test system: β1 and β3 integrin expressing HEK293T cells
Assay: Yeast surface display binding of mutant APCs on HEK293 cells
Design: species or system human
Excerpt: A broad-range of hosts and scaffolds based on ribosome display, phage display, and cell-surface display are used widely as systems to implement directed evolution (Hoogenboom, Nat. Biotechnol. 23:1105 (2005)). Among the cell surface display systems based on microbial and eukaryotic hosts, the yeast system offers the unique advantage of eukaryotic machinery that enables post-translational modification, glycosylation, and disulfide isomerization (Wittrup, Curr. Opin. Biotechnol. 12:392 (2001)). […] The yeast display system that was used employs the α-agglutinin yeast adhesion receptor to display recombinant proteins on cell surface of S. cerevisiae. The receptor consists of two proteins, Aga1 and Aga2 (FIG. 6). Aga1 is secreted and becomes covalently attached to β-glucan in the extracellular matrix of the yeast cell wall. Aga2 binds to Aga1 through two disulfide bonds, making it possible to express a protein of interest fused to Aga2.
Mixtures of 1 μg cDNA library and 0.5 μg of the Nhe1/BamH1 linearized pCTCON vector in 5 μl were transformed into 10^8 yeast cells by electroporation, which lead to ˜10^6 diversity in the library. Inside the cells, the cDNA library was recombined into the vector by the endogenous Gap repair protein. The yeast library of the human protein C was activated by thrombin. […]

B1: KR146/147GG+R177G: APC with combined substitutions K146G, R147G and R177G (protein)
chain: ANSFLEELRHSSLERECIEEICDFEEAKEIFQNVDDTLAFWSKHVDGDQCLVLPLEHPCASLCCGHGTCIDGIGSFSCDCRSGWEGRFCQREVSFLNCSLDNGGCTHYCLEEVGWRRCSCAPGYKLGDDLLQCHPAVKFPCGRPWGGMEKKRSHLKRDTEDQEDQVDPRLIDGKMTGRGDSPWQVVLLDSKKKLACGAVLIHPSWVLTAAHCMDESKKLLVRLGEYDLRRWEKWELDLDIKEVFVHPNYSKSTTDNDIALLHLAQPATLSQTIVPICLPDSGLAERELNQAGQETLVTGWGYHSSREKEAKRNRTFVLNFIKIPVVPHNECSEVMSNMVSENMLCAGILGDRQDACEGDSGGPMVASFHGTWFLVGLVSWGEGCGLLHNYGVYTKVSRYLDWIHGHIRDKEAPQKSWAP
Q: How did the “binding of yeast expressing mutant APC on HEK293 cells compared to WT APC” value turn out when B1 was run?
A: further enhanced
